Experimental findings from article PMC9367475 are described below.

Assay [1] concerns the target DC-SIGN on THP-1 cells induced with PMA and IL-4 (DC-THP-1) (human (endogenous in THP-1)) (UniProt Q9NNX6). The experiment in a line: cell binding assay (immunofluorescence read on a microplate reader); DC-HEK or DC-THP-1 cells in microtiter wells (1 x 10^5 cells/well); spike pseudotypes pre-incubated with or without rfhSP-D (20 µg/ml) added for 2 h at room temperature; fixed, anti-spike and Alexa Fluor 488 secondary antibody.

The target in assay [2] is human DC-SIGN expressed on HEK 293T cells (DC-HEK) (human) (UniProt Q9NNX6). Described as above.
Assay [3] deals with DC-SIGN on THP-1 cells induced with PMA and IL-4 (DC-THP-1) (human (endogenous in THP-1)) (UniProt Q9NNX6).
In assay [4] the target is human DC-SIGN expressed on HEK 293T cells (DC-HEK) (human) (UniProt Q9NNX6).

Take “SARS-CoV-2 spike protein on lentiviral pseudotypes (from UniProt P0DTC2 14-1273) (natural protein; other documents disagree on this pair)”: the increase of binding with rfhSP-D (20 µg/ml) against untreated in assay [1] is 25%; in assay [2], 50%.

With “SARS-CoV-2 spike protein on lentiviral pseudotypes (from UniProt P0DTC2 14-1273) (natural protein)”, the luciferase reporter activity (pseudotype transduction of DC-THP-1 cells), with rfhSP-D 20 µg/ml against untreated in assay [3] worked out at 90%. The luciferase reporter activity (pseudotype transduction of DC-HEK cells), with rfhSP-D 20 µg/ml against untreated in assay [4] is 190%.
